Consider 12 molecules from patent US20150344570A1 (published 2015).

T1: FcgRIIaH (human, UniProt P12318 34-217)
T1 construct: extracellular domain; Allotype H131; also called FcγRIIa H; FcgRIIa type H; not shown: His tag attached to the C terminus
T1 sequence (looked up): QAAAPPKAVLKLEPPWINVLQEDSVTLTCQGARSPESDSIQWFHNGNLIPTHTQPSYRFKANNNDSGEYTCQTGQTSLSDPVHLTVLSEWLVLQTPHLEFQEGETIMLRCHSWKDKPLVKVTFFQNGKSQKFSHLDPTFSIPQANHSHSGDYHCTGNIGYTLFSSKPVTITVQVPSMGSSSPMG

T2: FcgRIIaR (human, UniProt P12318 34-217)
T2 construct: extracellular domain; Allotype R131; also called FcγRIIa R; FcgRIIa type R; not shown: His tag attached to the C terminus
T2 sequence (looked up): T1 sequence (looked up) with H134R

T3: FcgRIIb (human, UniProt P31994 43-217)
T3 construct: extracellular domain; also called FcγRIIb; CD32B; not shown: His tag attached to the C terminus
T3 sequence (looked up): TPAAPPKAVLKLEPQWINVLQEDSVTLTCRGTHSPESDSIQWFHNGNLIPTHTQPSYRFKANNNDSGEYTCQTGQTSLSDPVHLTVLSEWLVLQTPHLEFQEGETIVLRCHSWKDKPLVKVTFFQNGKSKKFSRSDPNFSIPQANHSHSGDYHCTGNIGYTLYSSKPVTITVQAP

B1: GpH7-A5/GpH7-B3-03-20W/GpL16-k0 (antibody, human IgG1, kappa)
heavy 1: not shown
heavy 2: not shown
light: DIVMTQSPLSLPVTPGEPASISCQASESLVHSNRNTYLHWYLQKPGQSPQLLIYKVSNRFSGVPDRFSGSGSGTDFTLKISRVEAEDVGVYYCSQNTHVPPTFGQGTKVEIERTVAAPSVFIFPPSDEQLKSGTASVVCLLNNFYPREAKVQWKVDNALQSGNSQESVTEQDSKDSTYSLSSTLTLSKADYEKHKVYACEVTHQGLSSPVTKSFNRGEC
notes: G236W in the GpH7-B3 chain only; also called He Ab G236_20W; GpH7-A5/GpH7-B3 variant G236_20W/GpL16-k0
B2: GpH7-TA6/GpH7-B3/GpL16-k0 (antibody, human IgG1, kappa)
heavy 1: QVQLVQSGAEVKKPGASVTVSCKASGYTFTDYEMHWIRQPPGEGLEWIGAIDPKTGDTAYSESFQDRVTLTADKSTSTAYMELSSLTSEDTAVYYCTRFYSYTYWGQGTLVTVSSASTKGPSVFPLAPSSKSTSGGTAALGCLVKDYFPEPVTVSWNSGALTSGVHTFPAVLQSSGLYSLSSVVTVPSSSLGTQTYICNVNHKPSNTKVDKKVEPKSCDKTHTCPPCPAPELLWGPSVFLFPPKPKDTLMISRTPEVTCVVVDVSHEDPEVKFNWYVDGVEVHNAKTKPREEQYNATYRVVSVLTVLHQDWLNGKEYKCKVSNKALPAPIEKTISKAKGQPREPQVYTLPPSRKELTKNQVSLTCLVKGFYPSDIAVEWESNGQPENNYKTTPPVLDSDGSFFLYSKLTVDKSRWQQGNVFSCSVMHEALHNRYTQKSLSLSP
heavy 2: not shown
light: B1 light
notes: H1 G236W and S298A
B3: GpH7-A5/GpH7-B3-15-02A/GpL16-k0 (antibody, human IgG1, kappa)
heavy 1: not shown
heavy 2: not shown
light: B1 light
notes: H2 S298A
B4: GpH7-TA5/GpH7-B3/GpL16-k0 (antibody, human IgG1, kappa)
heavy 1: B2 heavy 1 with L232Y, W234G
heavy 2: not shown
light: B1 light
notes: H1 L234Y and S298A
B5: GpH7-TA1/GpH7-B3-15-02A/GpL16-k0 (antibody, human IgG1, kappa)
heavy 1: B2 heavy 1 with L232Y, W234G, A296S
heavy 2: not shown
light: B1 light
notes: H1 L234Y; H2 S298A
B6: GpH7-TA4/GpH7-B3/GpL16-k0 (antibody, human IgG1, kappa)
heavy 1: B2 heavy 1 with L232Y, A296S
heavy 2: not shown
light: B1 light
notes: H1 L234Y and G236W
B7: GpH7-TA2/GpH7-B3-01-15Y/GpL16-k0 (antibody, human IgG1, kappa)
heavy 1: B2 heavy 1 with A296S
heavy 2: not shown
light: B1 light
notes: H1 G236W; H2 L234Y
B8: GpH7-A5/GpH7-B3-01-15Y/GpL16-k0 (antibody, human IgG1, kappa)
heavy 1: not shown
heavy 2: not shown
light: B1 light
notes: L234Y in the GpH7-B3 chain only; also called He Ab L234_15Y; GpH7-A5/GpH7-B3 variant L234_15Y/GpL16-k0
B9: GpH7-TA3/GpH7-B3-03-20W/GpL16-k0 (antibody, human IgG1, kappa)
heavy 1: B2 heavy 1 with W234G
heavy 2: not shown
light: B1 light
notes: H1 S298A; H2 G236W
B10: H240-Kn172/H240-Hl177/L73-k0 (antibody, human IgG1, kappa)
heavy 1: QDQLVQSGAEVKKPGASVKVSCKASGFNIKDTYIQWVRQAPGQGLEWMGRIDPLRKQTKYREKFEGRVTITADTSTNTAYMELSSLRSEDTAVYYCVRSGREFDYWGQGTLVTVSSASTKGPSVFPLAPSSKSTSGGTAALGCLVKDYFPEPVTVSWNSGALTSGVHTFPAVLQSSGLYSLSSVVTVPSSSLGTQTYICNVNHKPSNTKVDKKVEPKSCDKTHTCPPCPAPEYYWGPMVFLFPPKPKDTLMISRTPEVTCVVVDVSDEDPEVKFNWYVDGVEVHNAKTKPREEQYNATYRVVSVLTVLHQDWLNGKEYKCKVSNKDLPAPMEKTISKAKGQPREPQVCTLPPSRDELTKNQVSLWCLVKGFYPSDIAVEWESNGQPENNYKTTPPVLDSDGSFFLYSKLTVDKSRWQQGNVFSCSVMHEALHNHYTQKSLSLSP
heavy 2: QDQLVQSGAEVKKPGASVKVSCKASGFNIKDTYIQWVRQAPGQGLEWMGRIDPLRKQTKYREKFEGRVTITADTSTNTAYMELSSLRSEDTAVYYCVRSGREFDYWGQGTLVTVSSASTKGPSVFPLAPSSKSTSGGTAALGCLVKDYFPEPVTVSWNSGALTSGVHTFPAVLQSSGLYSLSSVVTVPSSSLGTQTYICNVNHKPSNTKVDKKVEPKSCDKTHTCPPCPAPELLGGPSVFLFPPKPKDTLMISRTPEVTCVVVDVSHEEPEVKFNWYVDGVEVHNAKTKPREEQYNSTYRVVSVLTVLHQDWLNGKEYKCKVSNDALPKPQEETISKAKGQPREPQVYTLPPSRCELTKNQVSLSCAVKGFYPSDIAVEWESNGQPENNYKTTPPVLDSDGSFFLVSKLTVDKSRWQQGNVFSCSVMHEALHNHYTQKSLSLSP
light: DIQMTQSPSSLSASVGDRVTITCRASQDIHKYIAWYQQKPGQAPRLLIQYTSTLQPGVPSRFSGSGSGTDYTFTISSLQPEDIATYYCLQYEQLRTFGGGTKVEIKRTVAAPSVFIFPPSDEQLKSGTASVVCLLNNFYPREAKVQWKVDNALQSGNSQESVTEQDSKDSTYSLSSTLTLSKADYEKHKVYACEVTHQGLSSPVTKSFNRGEC
notes: Heterodimerized anti-epiregulin IgG1 antibody; I332M in H240-Kn120 and I332Q in H240-Hl068
B11: H240-Kn178/H240-Hl068/L73-k0 (antibody, human IgG1, kappa)
heavy 1: B10 heavy 1 with M331I, K333Y
heavy 2: B10 heavy 2 with Q331I
light: B10 light
notes: Heterodimerized anti-epiregulin IgG1 antibody; K334Y in H240-Kn120
B12: H240-Kn173/H240-Hl068/L73-k0 (antibody, human IgG1, kappa)
heavy 1: B10 heavy 1 with M331Q
heavy 2: B10 heavy 2 with Q331I
light: B10 light
notes: Heterodimerized anti-epiregulin IgG1 antibody; I332Q in H240-Kn120

Changes are numbered by the printed parent chain. In names and notes the source's numbering stands.

T6 sequence (P08637 17-208): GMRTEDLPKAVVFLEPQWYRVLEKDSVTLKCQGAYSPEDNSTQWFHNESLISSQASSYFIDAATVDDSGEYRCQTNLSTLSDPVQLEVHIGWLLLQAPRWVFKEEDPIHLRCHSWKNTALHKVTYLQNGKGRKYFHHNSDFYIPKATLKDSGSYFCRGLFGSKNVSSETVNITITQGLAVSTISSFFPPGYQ
T4 sequence (P08637 17-208): as above
T7 sequence (P08637 17-208 F176V limits assumed): as the sequence (P08637 17-208) above, with F160V counted along it
T5 sequence (P12314 16-292): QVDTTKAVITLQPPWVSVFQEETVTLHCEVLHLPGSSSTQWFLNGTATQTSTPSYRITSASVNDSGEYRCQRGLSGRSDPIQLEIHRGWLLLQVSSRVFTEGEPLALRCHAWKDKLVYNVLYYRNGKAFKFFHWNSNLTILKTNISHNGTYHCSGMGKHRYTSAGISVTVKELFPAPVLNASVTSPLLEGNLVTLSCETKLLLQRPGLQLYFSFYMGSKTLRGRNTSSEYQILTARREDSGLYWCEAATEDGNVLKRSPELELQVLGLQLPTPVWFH

One test addresses T4, FcγRIIIa extracellular domain with C-terminal His tag (human, UniProt P08637 17-208). The test is described as follows: SPR (Biacore), relative binding activity; GpH7-A5/GpH7-B3/GpL16-k0 = 100. (In general: In SPR one partner is held on a chip, and binding of the other changes the refractive index at the surface.)
As for B1, the “FcγRIIIa BINDING ACTIVITY” value came to 140%.
Still for that read-out and setting: the value for B2 was 228%.
Consider B3, for which the “FcγRIIIa BINDING ACTIVITY” value was 163%.
Consider B4, for which the “FcγRIIIa BINDING ACTIVITY” value was 208%.
Regarding B5, the “FcγRIIIa BINDING ACTIVITY” value is 142%.
For the molecule B6, the “FcγRIIIa BINDING ACTIVITY” value amounted to 168%.
B7: the “FcγRIIIa BINDING ACTIVITY” value was found to be 130%.
Turning to B8, the “FcγRIIIa BINDING ACTIVITY” value was 131%.
In the case of B9, the “FcγRIIIa BINDING ACTIVITY” value amounted to 70%.

The next test addresses T5, FcgRIa (human, UniProt P12314 16-292).
T5 construct: extracellular domain; Soluble extracellular domain expressed in FreeStyle293 cells; also called FcγRIa; FcγRI; not shown: His tag attached to the C terminus
In words: SPR (Biacore); KD of H240-Kn120/H240-Hl068/L73-k0 divided by KD of the sample.
Take B10: the “relative KD” value turned out to be 0.6.
With B11, the “relative KD” value was determined as 0.7.
B12: the “relative KD” value worked out at 1.3.

The target of another test is T1, FcgRIIaH. The test is described as above.
Consider B10, for which the “relative KD” value is 0.7.
As to B11, the “relative KD” value was found to be 0.6.
Same read-out and setting: the figure for B12 is 0.7.

Another test has as its target T6, FcgRIIIaF (human, UniProt P08637 17-208).
T6 construct: extracellular domain; Allotype F158; also called FcγRIIIa F; not shown: His tag attached to the C terminus
The description is as above.
Turning to B10, the “relative KD” value was found to be 1.1.
Consider B11, for which the “relative KD” value stood at 1.6.
Same read-out and setting: the figure for B12 is 1.2.

In the next test the target is T2, FcgRIIaR. Described as above.
For B10, the “relative KD” value came to 0.7.
Same read-out and setting: the figure for B11 is 0.8; for B12 it is 0.5.

Another test concerns the target T7, FcgRIIIaV (human, UniProt P08637 17-208).
T7 construct: extracellular domain; Allotype V158; also called FcγRIIIa V; not shown: His tag attached to the C terminus
The description is as above.
As to B10, the “relative KD” value stood at 1.6.
B11: the “relative KD” value was 1.9.
On to B12, for which the “relative KD” value is 0.9.

The target in a further test is T3, FcgRIIb. The test is described as above.
Turning to B10, the “relative KD” value worked out at 0.9.
As for B11, the “relative KD” value turned out to be 1.4.
Consider B12, for which the “relative KD” value worked out at 0.5.

For another test, the target named is T4, FcγRIIIa extracellular domain with …. In words: SPR (Biacore), one H chain altered; HeCon Ab GpH7-A5/GpH7-B3/GpL16-k0 = 100.
With B1, the He/Con_3a amounted to 135%.
The same measure, in the same setting: the value for B8 was 130%.
